What all share (assay): mass photometry
Assay [1] addresses deglycosylated trastuzumab.
The target of assay [2] is trastuzumab (Herceptin®), immunoglobulin G (IgG) monoclonal antibody.
Assay [3] has as its target deglycosylated trastuzumab. This is another data set of the same source.
Assay [4] has as its target deglycosylated trastuzumab. This is another data set of the same source.
For assay [5], the target named is trastuzumab (Herceptin®), immunoglobulin G (IgG) monoclonal antibody. The source holds these as a separate data set.
Assay [6] concerns the target recombinant human FcRN (His and Avi tagged), neonatal Fc receptor (human) (UniProt P55899).
Assay [7] shares this target. The source holds these as a separate data set.
Assay [8] deals with trastuzumab (Herceptin®), immunoglobulin G (IgG) monoclonal antibody. The source holds these as a separate data set.
The target is the same in assay [9]. This is another data set of the same source.
Assay [10] deals with recombinant human FcRN (His and Avi tagged), neonatal Fc receptor (human) (UniProt P55899). The source holds these as a separate data set.
For assay [11] the target is unchanged. This is another data set of the same source.

Where “and” joins values, the source holds several entries; their conditions need not be identical. Equal values may be shown once. Read-outs that look alike come from different tables or passages of the source. Bounds are passed on as bounds.

In assay [1], “FcγRIa (CD64 human recombinant, His Tag) (from UniProt P12314) (receptor)” gave a Kd of 1 nM and a percent bound antibody of 50%. In [2], this substance registered a Kd of 0.05 nM and a percent complex formation of 90%. Also, in assay [3], the Kd is 0.6 nM and 0.7 nM. In addition, in assay [4], the Kd was 1.1 nM, the koff was found to be 0.0068 s⁻¹ and the on-rate (kon) was 6e+06 M⁻¹ s⁻¹. In assay [5], this substance displayed a dissociation constant (Kd) of 0.026 nM, a koff of 0.00052 s⁻¹ and an on-rate constant (kon) of 1.9e+07 M⁻¹ s⁻¹.

As for “recombinant human FcRN (His and Avi tagged), neonatal Fc receptor (from UniProt P55899)”, the Kd in [6] was 31 nM; in [2] it was > 200 nM; in [7], 44 nM and 171 nM; in assay [9], > 200 nM; in [10], > 200 nM; in assay [11] it was > 200 nM. Further, the stoichiometry N in assay [6] and in assay [8] was 2 in each case. In addition, the Kd of IgG plus two FcRns (second FcRn) in assay [8] is 6.6 nM and 3.9 nM. Further, the Kd of IgG-FcRn monomer (first FcRn) in [8] was 59 nM and 225 nM.

In general, Kd refers to the constant that tells how readily two partners part at equilibrium. The koff is a measure of how fast the partners let go of each other. A low value points to a long-lived complex. As usually defined, the kon is the second-order rate constant of association. Read a low kon as slower complex formation. Usually stoichiometry N stands for the number of molecules, sites or subunits per partner or assembly.
